# US8835136B2, “Engineered amine dehydrogenases and methods of use thereof” (Georgia Tech Research Corporation, priority 2012, dated 2014)
# Where “and” joins values, the source holds several entries; their conditions need not be identical. Equal entries are not always repeated.
# B1: K77S N276L: PheDH-AmDH double variant, SEQ ID NO:2; PheDH library 1 hit 1H4 (protein)
# chain: SLVEKTSIIKDFTLFEKMSEHEQVVFCNDPATGLRAIIAIHDTTLGPALGGCRMQPYNSVEEALEDALRLSKGMTYSCAASDVDFGGGKAVIIGDPQKDKSPELFRAFGQFVDSLGGRFYTGTDMGTNMEDFIHAMKETNCIVGVPEAYGGGGDSSIPTAMGVLYGIKATNKMLFGKDDLGGVTYAIQGLGKVGYKVAEGLLEEGAHLFVTDINEQTLEAIQEKAKTTSGSVTVVASDEIYSQEADVFVPCAFGGVVNDETMKQFKVKAIAGSANLQLLTEDHGRHLADKGILYAPDYIVNSGGLIQVADELYEVNKERVLAKTKHIYDAILEVYQQAELDQITTMEAANRMCEQRMAARGRRNSFFTSSVKPKWDIRN
# Experiments:
# Assay type in all cases: biochemical
# [1] = Reductive amination, spectrophotometric assay at 340 nm; conditions: 500 mM NH4Cl/NH4OH pH 9.6, 200 μM NADH, 20 mM, 25° C.
# Description: (§1) Activity of purified proteins was measured using a spectrophotometric assay at 340 nm, corresponding to the cofactor nicotinamide adenine dinucleotide (NADH, ε340=6220 M^−1 cm^−1) (Dawson, et al., Clarendon Press, (1989). For reductive amination, reactions took place in 500 mM NH4Cl/NH4OH at pH 9.6, with 200 μM NADH and 20 mM of the ketone substrate, unless otherwise specified. For oxidative deamination, reactions took place in 0.1 M NaHCO3/Na2CO3 buffer at pH 10.0, with 1 mM NAD+ with 10 mM of the amine substrate of interest. All reactions were performed at 25° C. unless otherwise specified. Enzyme was added in 10 μL aliquots in dilute concentrations. Enzyme concentrations varied upon activity levels with the substrate present, but were dilute enough to ensure linear conversion kinetics over the analytical time period (10 min to 30 min). Specific activities were then calculated from the stoichiometric conversion of cofactor as determine by the change in absorbance at 340 nm over time.
# [2] = Oxidative deamination, spectrophotometric assay at 340 nm; conditions: deamination, 0.1M glycine pH 10.0, 1 mM NAD+, 20 mM, 25° C.
# Description: as §1, with “For oxidative deamination, reactions took place in 0.1 M NaHCO3/Na2CO3 buffer at pH 10.0, with 1 mM NAD+ with 10 mM of the amine substrate of interest.” left out
# The enantioselectivity was initially estimated by measuring the deamination activity toward individual enantiomers of methylbenzylamine (MBA). […] A preference towards (R)-MBA over the corresponding (S)-enantiomer was evident in the discrepancies between the deamination activities of 0.586 U mg^−1 and 0.002 U mg^−1, respectively. These preliminary results were corroborated through direct measurement of the enantioselectivity of the MIBK amination in producing chiral 1,3-DMBA.
# [3] = Reductive amination of PFPA, spectrophotometric assay at 340 nm
# Description: as §1
# (§2) The activity of the purified protein was evaluated using a spectrophotometric assay at 340 nm as described in Section 3.2.3 at 25° C. in various concentrations of NH4Cl/NH4OH buffer pH 9.6.
# Active variants were identified by the rate of change in absorbance at 340 nm, corresponding to the fastest activity. […] Some variants consumed the cofactor too quickly (<5 min) to be observed over multiple time points, and gave low absorbance in the initial time point. These variants were included for further characterization. The successful variants were sequenced (MWG Operon), and each unique sequence was expressed in pET28a/BL21 for histag purification and determination of kcat and KM values with PFPA.
# [4] = Reductive amination, spectrophotometric assay at 340 nm; conditions: 500 mM NH4Cl/NH4OH pH 9.6, 200 μM NADH, 20 mM, 25° C.; remark: listed apart in the source
# Description: as §1, §2
# [5] = Reductive amination activity
# [6] = Kinetic parameter for NADH (PheDH-AmDH)
# Description: Kinetic parameters, kcat and KM, were determined for the enzyme and each of the reductive amination substrates; respectively. […] The kcat value for this AmDH enzyme with all three substrates saturated in aqueous NH4Cl/NH4OH buffer at pH 9.6 was 6.85 s^−1 at 25° C. This represents a near 15-fold enhancement above the maximum observed kcat of 0.46 s^−1 of the previously developed LeuDH-AmDH.
# [7] = Temperature versus activity profile (PheDH-AmDH)
# Description: The thermostability of the double variant K77S N276L was additionally determined by a temperature versus activity plot, showing the results of amination activity measured in 5 M NH4Cl/NH4OH buffer pH 9.6, 200 μM NADH, 20 mM PFPA for 2 minutes (FIG. 17). […] The near linear increase corresponds to a low activation energy of 241 J mol^−1. The maximum specific activity was 11.6 U mg^−1 at a temperature of 50° C. Above 50° C., the enzyme began to rapidly lose activity as a result of denaturation. This deactivation correlated well with the circular dichroism data, where a dramatic loss of secondary structure was observed from 50° C. to 70° C.
# [8] = Enantioselectivity of PFPA amination, chiral gas chromatography; conditions: chiral GC after TFAA derivatization
# Text: Equally important to conversion is maintaining the selectivity of the enzyme after altering the substrate specificity. Preservation of the wild type (S)-selectivity towards phenylalanine will result in the asymmetric production of (R)-1-(4-fluorophenyl)-propyl-2-amine due to a change in Cahn-Ingold-Prelaw priority. The product amine resulting from enzymatic conversion with the co-factor recycle was isolated and derivatized using trifluoroacetic anhydride for analysis via chiral gas chromatography. An enantiomeric excess of >99.8% toward (R)-1-(4-fluorophenyl)-propyl-2-amine was confirmed, however, further resolution of the selectivity was limited by the separation capability of the chiral column. Throughout all experiments, the (S)-enantiomer remained below the detection limits. Even as the enzyme approaches levels of conversion beyond 90%, the high enantioselectivity toward (R)-1-(4-fluorophenyl)-propyl-2-amine is maintained. This renders the AmDH/GDH system a viable method for the production of chiral amines.
molecule,measurement,setting,value
B1,"Activity, MIBK",[1],77.0 ± 1.3 mU/mg
same,"Activity, cyclohexanone",[1],27.5 ± 1.4 mU/mg
same,"Activity, ethylpyruvate",[1],18.4 ± 5.9 mU/mg
same,"Activity, R-MBA",[2],1.9 ± 1.8 mU/mg
same,"Activity, S-MBA",[2],<1.0 mU/mg
same,enhancement above maximum kcat of LeuDH-AmDH,[3],~15 fold
same,"kcat, amination of PFPA","[3]; 500 mM NH4Cl/NH4OH pH 9.6, 200 μM NADH, apparent",2.8 s⁻¹
same,Km,"[3]; 500 mM NH4Cl/NH4OH pH 9.6, 200 μM NADH, read-out: KM, amination of PFPA",4.37 mM
same,Km,"[3]; 5 M NH4Cl/NH4OH pH 9.6, 200 μM NADH, read-out: KM value of PFPA",7.75 mM
same,kcat with all three substrates saturated,"[3]; aqueous NH4Cl/NH4OH buffer pH 9.6, 25° C.",6.85 s⁻¹
same,"Activity, 1-Boc-piperidone",[4],7.8 ± 1.1 mU/mg
same,"Activity, 2-hexanone",[4],155.7 mU/mg and 155.7 ± 1.4 mU/mg
same,"Activity, 2-methylcyclohexanone",[4],19.3 ± 1.1 mU/mg
same,"Activity, 3-hexanone",[4],1.6 mU/mg and 1.6 ± 0.5 mU/mg
same,"Activity, 3-methyl-2-butanone",[4],72.7 ± 1.4 mU/mg
same,"Activity, 3-methylcyclohexanone",[4],41.1 ± 2.1 mU/mg
same,"Activity, 3-pentanone",[4],1.3 ± 0.0 mU/mg
same,"Activity, Benzyloxyacetic acid",[4],22.6 ± 0.7 mU/mg
same,"Activity, benzaldehyde",[4],31.4 ± 8.7 mU/mg
same,"Activity, cyclopentanone",[4],0.9 ± 0.5 mU/mg
same,"Activity, phenoxy-2-propanone",[4],540.8 ± 6.9 mU/mg
same,"Activity, 2-hexanone",[4]; listed as K77S/N276L,155.7 mU/mg
same,"Activity, 3-hexanone",[4]; listed as K77S/N276L,1.6 mU/mg
same,"activity level, 1,3 Phenylbutanedione",[5],30 mU/mg
same,Km,[6],0.0239 mM
same,activation energy,[7]; 10-45° C.,0.0576 kcal/mol
same,maximum specific activity,"[7]; at 50° C., 5 M NH4Cl/NH4OH pH 9.6, 200 μM NADH, 20 mM PFPA",11.6 U mg^−1
same,enantiomeric excess toward (R)-1-(4-fluorophenyl)-propyl-2-amine,[8],> 99.8%
